These results are taken from patent US20250312499A1, “KISSPEPTIN RECEPTOR (KISS1R) TARGETED THERAPEUTICS AND USES THEREOF” (priority 2024, published 2025).

This test deals with human kisspeptin receptor (KISS1R) (human), Q969F8. As to the kind of experiment: radioligand competition, hKISS1R membranes; legend: A is <10 nM. (In general: Loss of bound radioactivity is the signal in a displacement assay; it reports binding, not function.)

Numbered stars: 1 amine (or outer) side, 2 acyl side, 3 side chain; on linkers, the order of the positions; unused ones are H or OH. Square brackets hold non-standard residues; d marks the D form. Ends that are not written are not given here. * marks the point of attachment. X2 = 4‑amino‑1‑((3-fluoro-4-methylbenzyl)glycyl)piperidine‑4‑carboxylic acid, Cc1ccc(CN(CC(=O)N2CCC(N[*:1])(C(=O)[*:2])CC2)[*:3])cc1F; X6 = 3‑(2-(2-(3-(p-tolyl)propanamido)ethoxy)ethoxy)propanoyl, Cc1ccc(CCC(=O)NCCOCCOCCC(=O)*)cc1; DOTA = O=C(O)CN1CCN(CC(=O)O)CCN(CC(=O)*)CCN(CC(=O)O)CC1; Phe(3-F) = N[C@@H](Cc1cccc(F)c1)C(=O)O; d4Pal = N[C@H](Cc1ccncc1)C(=O)O; Cha = N[C@@H](CC1CCCCC1)C(=O)O; NH‑glycol = not defined here; Octanoyl = CCCCCCCC(=O)*; ABA = not defined here; APM = not defined here; Ahx = NCCCCCC(=O)O; azaGly = NNC(=O)O

Chain of human kisspeptin receptor (KISS1R) (human), Q969F8 (Q969F8 whole entry): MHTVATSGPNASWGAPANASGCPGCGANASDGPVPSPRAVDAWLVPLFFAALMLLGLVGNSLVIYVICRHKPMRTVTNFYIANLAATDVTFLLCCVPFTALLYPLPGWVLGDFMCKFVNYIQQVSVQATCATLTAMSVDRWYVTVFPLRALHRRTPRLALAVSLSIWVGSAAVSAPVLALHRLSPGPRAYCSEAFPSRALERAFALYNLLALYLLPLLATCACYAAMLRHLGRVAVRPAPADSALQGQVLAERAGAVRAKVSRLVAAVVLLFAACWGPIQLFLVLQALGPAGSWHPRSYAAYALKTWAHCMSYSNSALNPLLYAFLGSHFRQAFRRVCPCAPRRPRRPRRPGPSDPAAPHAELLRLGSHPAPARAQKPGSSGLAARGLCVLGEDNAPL

For orientation: Ki means the equilibrium dissociation constant of an inhibitor or competing ligand from its target. Take [dY]K(DOTA)NTF[azaGly]L[4‑amino‑1‑carbamimidoylpiperidine‑4‑carboxylic acid(Sarcosine)]W-NH2 (not fully specified (N-terminus)) [Compound 384]: the inhibition constant (Ki) is under 10 nM.

B1: Compound 32 (peptide)
peptide: {DOTA-Ahx}-[dY][dH][dW]NTF[azaGly]L[X2]W-NH2
SMILES: Cc1ccc(CNCC(=O)N2CCC(NC(=O)[C@H](CC(C)C)NC(=O)NNC(=O)[C@H](Cc3ccccc3)NC(=O)[C@@H](NC(=O)[C@H](CC(N)=O)NC(=O)[C@@H](Cc3c[nH]c4ccccc34)NC(=O)[C@@H](Cc3c[nH]cn3)NC(=O)[C@@H](Cc3ccc(O)cc3)NC(=O)CCCCCNC(=O)CN3CCN(CC(=O)O)CCN(CC(=O)O)CCN(CC(=O)O)CC3)[C@@H](C)O)(C(=O)N[C@@H](Cc3c[nH]c4ccccc34)C(N)=O)CC2)cc1F
Consider B1, for which the inhibition constant (Ki) was under 10 nM.

B2: Compound 380 (peptide)
peptide: Ac-[dY]K(DOTA)NTF[azaGly]L[X2]W-NH2
SMILES: CC(=O)N[C@H](Cc1ccc(O)cc1)C(=O)N[C@@H](CCCCNC(=O)CN1CCN(CC(=O)O)CCN(CC(=O)O)CCN(CC(=O)O)CC1)C(=O)N[C@@H](CC(N)=O)C(=O)N[C@H](C(=O)N[C@@H](Cc1ccccc1)C(=O)NNC(=O)N[C@@H](CC(C)C)C(=O)NC1(C(=O)N[C@@H](Cc2c[nH]c3ccccc23)C(N)=O)CCN(C(=O)CNCc2ccc(C)c(F)c2)CC1)[C@@H](C)O
B2: the Ki is under 10 nM.

B3: Compound 35 (peptide)
peptide: {DOTA-Ahx}-[dY]WNT[Phe(3-F)][azaGly]L[X2]W-NH2
SMILES: Cc1ccc(CNCC(=O)N2CCC(NC(=O)[C@H](CC(C)C)NC(=O)NNC(=O)[C@H](Cc3cccc(F)c3)NC(=O)[C@@H](NC(=O)[C@H](CC(N)=O)NC(=O)[C@H](Cc3c[nH]c4ccccc34)NC(=O)[C@@H](Cc3ccc(O)cc3)NC(=O)CCCCCNC(=O)CN3CCN(CC(=O)O)CCN(CC(=O)O)CCN(CC(=O)O)CC3)[C@@H](C)O)(C(=O)N[C@@H](Cc3c[nH]c4ccccc34)C(N)=O)CC2)cc1F
The molecule B3 displayed an inhibitory constant (Ki) of under 10 nM.

X6-[dY]K(DOTA)NT[Cha][azaGly]L[4‑amino‑1‑carbamimidoylpiperidine‑4‑carboxylic acid(Sarcosine)]W-NH2 [Compound 387] came in with an inhibitory constant (Ki) of under 10 nM.

B4: Compound 22 (peptide)
peptide: {DOTA-Ahx}-FF[azaGly]L[X2]W-NH2
modifications: not fully specified; numbers in words are those of the source; also: places azaglycine at site 3
Molecule B4 registered a Ki of under 10 nM.

B5: Compound 23 (peptide)
peptide: {DOTA}-[dY][d4Pal]NTF[azaGly]L[X2]W-NH2
SMILES: Cc1ccc(CNCC(=O)N2CCC(NC(=O)[C@H](CC(C)C)NC(=O)NNC(=O)[C@H](Cc3ccccc3)NC(=O)[C@@H](NC(=O)[C@H](CC(N)=O)NC(=O)[C@@H](Cc3ccncc3)NC(=O)[C@@H](Cc3ccc(O)cc3)NC(=O)CN3CCN(CC(=O)O)CCN(CC(=O)O)CCN(CC(=O)O)CC3)[C@@H](C)O)(C(=O)N[C@@H](Cc3c[nH]c4ccccc34)C(N)=O)CC2)cc1F
Take B5: the Ki was under 10 nM.

In turn, {DOTA-4‑(aminomethyl)cyclohexanecarboxylic acid}-F[azaGly]L[X2]W-NH2 [Compound 25] yielded an inhibition constant (Ki) of under 10 nM.

With X6-[dY][dK](DOTA)NT[Cha][azaGly]L[4‑amino‑1‑carbamimidoylpiperidine‑4‑carboxylic acid(Sarcosine)]W-NH2 [Compound 388], the Ki was under 10 nM.

B6: Compound 20 (peptide)
peptide: {DOTA-Ahx}-[dY]PNTF[azaGly]L[X2]W-NH2
SMILES: Cc1ccc(CNCC(=O)N2CCC(NC(=O)[C@H](CC(C)C)NC(=O)NNC(=O)[C@H](Cc3ccccc3)NC(=O)[C@@H](NC(=O)[C@H](CC(N)=O)NC(=O)[C@@H]3CCCN3C(=O)[C@@H](Cc3ccc(O)cc3)NC(=O)CCCCCNC(=O)CN3CCN(CC(=O)O)CCN(CC(=O)O)CCN(CC(=O)O)CC3)[C@@H](C)O)(C(=O)N[C@@H](Cc3c[nH]c4ccccc34)C(N)=O)CC2)cc1F
Consider B6, for which the Ki was under 10 nM.

As for {DOTA-ABA}-F[azaGly]L[X2]W-NH2 (reading uncertain) [Compound 50], the Ki is under 10 nM.

{DOTA-APM}-[dY][dW]NT[Phe(3-F)][azaGly]L[X2]W-NH2 (reading uncertain) [Compound 34] had a Ki of under 10 nM.

Take {DOTA-NH‑PEG2‑propanoyl}-[dY][dW]NTF[azaGly]L[X2]W-NH2 [Compound 382]: the inhibitory constant (Ki) was under 10 nM.

B7: Compound 27 (peptide)
peptide: {DOTA-Ahx}-[dY]KNT[Phe(3-F)][azaGly]L[X2]W-NH2
SMILES: Cc1ccc(CNCC(=O)N2CCC(NC(=O)[C@H](CC(C)C)NC(=O)NNC(=O)[C@H](Cc3cccc(F)c3)NC(=O)[C@@H](NC(=O)[C@H](CC(N)=O)NC(=O)[C@H](CCCCN)NC(=O)[C@@H](Cc3ccc(O)cc3)NC(=O)CCCCCNC(=O)CN3CCN(CC(=O)O)CCN(CC(=O)O)CCN(CC(=O)O)CC3)[C@@H](C)O)(C(=O)N[C@@H](Cc3c[nH]c4ccccc34)C(N)=O)CC2)cc1F
Molecule B7 came in with an inhibition constant (Ki) of under 10 nM.

B8: Compound 36 (peptide)
peptide: {DOTA-Ahx}-[dY]ENT[Phe(3-F)][azaGly]L[X2]W-NH2
SMILES: Cc1ccc(CNCC(=O)N2CCC(NC(=O)[C@H](CC(C)C)NC(=O)NNC(=O)[C@H](Cc3cccc(F)c3)NC(=O)[C@@H](NC(=O)[C@H](CC(N)=O)NC(=O)[C@H](CCC(=O)O)NC(=O)[C@@H](Cc3ccc(O)cc3)NC(=O)CCCCCNC(=O)CN3CCN(CC(=O)O)CCN(CC(=O)O)CCN(CC(=O)O)CC3)[C@@H](C)O)(C(=O)N[C@@H](Cc3c[nH]c4ccccc34)C(N)=O)CC2)cc1F
The molecule B8 showed an inhibition constant (Ki) of under 10 nM.

B9: Compound 26 (peptide)
peptide: {DOTA-Ahx}-NTF[azaGly]L[X2]W-NH2
SMILES: Cc1ccc(CNCC(=O)N2CCC(NC(=O)[C@H](CC(C)C)NC(=O)NNC(=O)[C@H](Cc3ccccc3)NC(=O)[C@@H](NC(=O)[C@H](CC(N)=O)NC(=O)CCCCCNC(=O)CN3CCN(CC(=O)O)CCN(CC(=O)O)CCN(CC(=O)O)CC3)[C@@H](C)O)(C(=O)N[C@@H](Cc3c[nH]c4ccccc34)C(N)=O)CC2)cc1F
B9 returned a Ki of under 10 nM.

Regarding {DOTA-2‑(4-aminopiperidin-1-yl)acetic acid}-[dY]ENT[Phe(3-F)][azaGly]L[X2]W-NH2 [Compound 24], the Ki is under 10 nM.

B10: Compound 381 (peptide)
peptide: Octanoyl-[dY]K(DOTA)NTF[azaGly]L[X2]W-NH2
SMILES: CCCCCCCC(=O)N[C@H](Cc1ccc(O)cc1)C(=O)N[C@@H](CCCCNC(=O)CN1CCN(CC(=O)O)CCN(CC(=O)O)CCN(CC(=O)O)CC1)C(=O)N[C@@H](CC(N)=O)C(=O)N[C@H](C(=O)N[C@@H](Cc1ccccc1)C(=O)NNC(=O)N[C@@H](CC(C)C)C(=O)NC1(C(=O)N[C@@H](Cc2c[nH]c3ccccc23)C(N)=O)CCN(C(=O)CNCc2ccc(C)c(F)c2)CC1)[C@@H](C)O
On to B10, for which the Ki is under 10 nM.

{DOTA-APM}-[dY][dH][dW]NTF[azaGly]L[X2]W-NH2 (reading uncertain) [Compound 33]: the inhibition constant (Ki) is under 10 nM.

The molecule {DOTA-NH‑glycol}-[dY][dW]NTF[azaGly]L[X2]W-NH2 (reading uncertain) [Compound 57] displayed an inhibition constant (Ki) of under 10 nM.

B11: Compound 55 (peptide)
peptide: {DOTA-Ahx}-F[azaGly]L[X2]F-NH2
SMILES: Cc1ccc(CNCC(=O)N2CCC(NC(=O)[C@H](CC(C)C)NC(=O)NNC(=O)[C@H](Cc3ccccc3)NC(=O)CCCCCNC(=O)CN3CCN(CC(=O)O)CCN(CC(=O)O)CCN(CC(=O)O)CC3)(C(=O)N[C@@H](Cc3ccccc3)C(N)=O)CC2)cc1F
For B11, the Ki was under 10 nM.

B12: Compound 383 (peptide)
peptide: {DOTA-Ahx}-[dY][dW]NTF[azaGly]L[X2][dW]-NH2
SMILES: Cc1ccc(CNCC(=O)N2CCC(NC(=O)[C@H](CC(C)C)NC(=O)NNC(=O)[C@H](Cc3ccccc3)NC(=O)[C@@H](NC(=O)[C@H](CC(N)=O)NC(=O)[C@@H](Cc3c[nH]c4ccccc34)NC(=O)[C@@H](Cc3ccc(O)cc3)NC(=O)CCCCCNC(=O)CN3CCN(CC(=O)O)CCN(CC(=O)O)CCN(CC(=O)O)CC3)[C@@H](C)O)(C(=O)N[C@H](Cc3c[nH]c4ccccc34)C(N)=O)CC2)cc1F
In turn, B12 returned a Ki of under 10 nM.

{DOTA-APM}-F[azaGly]L[X2]W-NH2 (reading uncertain) [Compound 28] displayed an inhibitory constant (Ki) of under 10 nM.

For {DOTA}-KF[azaGly]L[X2]W-NH2 [Compound 37], the Ki was under 10 nM.

B13: Compound 30 (peptide)
peptide: {DOTA-Ahx}-[dW]NTF[azaGly]L[X2]W-NH2
SMILES: Cc1ccc(CNCC(=O)N2CCC(NC(=O)[C@H](CC(C)C)NC(=O)NNC(=O)[C@H](Cc3ccccc3)NC(=O)[C@@H](NC(=O)[C@H](CC(N)=O)NC(=O)[C@@H](Cc3c[nH]c4ccccc34)NC(=O)CCCCCNC(=O)CN3CCN(CC(=O)O)CCN(CC(=O)O)CCN(CC(=O)O)CC3)[C@@H](C)O)(C(=O)N[C@@H](Cc3c[nH]c4ccccc34)C(N)=O)CC2)cc1F
Consider B13, for which the Ki was under 10 nM.
